Measurements reported in publication PMC10273338.

Target: BAG3 (Bcl-2 associated athanogene protein 3) (human) (UniProt O95817)
Assay: SPR; BIACORE X; BAG3 amine-coupled to a CM5 chip (3400 RU); running buffer 10 mM HEPES pH 7.4, 150 mM NaCl, 3 mM EDTA, 0.005% P20; 10 uL/min; Langmuir 1:1 fit

Chain of BAG3 (Bcl-2 associated athanogene protein 3), O95817 1-575 (natural protein; other documents disagree on this pair) (O95817 whole entry): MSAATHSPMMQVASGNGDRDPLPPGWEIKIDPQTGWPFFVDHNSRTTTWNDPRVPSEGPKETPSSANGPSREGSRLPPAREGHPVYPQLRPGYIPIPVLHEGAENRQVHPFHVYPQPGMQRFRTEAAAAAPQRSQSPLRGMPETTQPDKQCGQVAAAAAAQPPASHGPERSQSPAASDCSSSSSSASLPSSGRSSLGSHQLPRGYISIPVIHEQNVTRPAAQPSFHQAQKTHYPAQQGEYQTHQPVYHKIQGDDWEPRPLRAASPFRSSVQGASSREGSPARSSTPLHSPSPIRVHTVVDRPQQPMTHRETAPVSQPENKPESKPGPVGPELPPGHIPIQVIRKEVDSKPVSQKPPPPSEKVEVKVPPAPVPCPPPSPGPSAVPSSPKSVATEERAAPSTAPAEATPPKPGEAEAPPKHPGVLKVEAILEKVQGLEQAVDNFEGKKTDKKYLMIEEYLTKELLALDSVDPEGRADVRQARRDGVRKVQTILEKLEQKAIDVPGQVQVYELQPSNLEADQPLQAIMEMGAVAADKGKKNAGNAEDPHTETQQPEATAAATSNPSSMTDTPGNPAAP

## BAG3 (Bcl-2 associated athanogene protein 3), O95817 1-575 (natural protein; other documents disagree on this pair)
  Ka: 5.3e+07 M⁻¹
  Kd: 19 nM
  koff: 0.0003 s⁻¹
  kon: 16000 M⁻¹ s⁻¹
